Experimental data published in patent US20250206836A1 (ONA THERAPEUTICS S L, published 2025).
Numbering of substitutions follows the chain as printed. Names may count otherwise.

B1: 14G04 (antibody, human IgG1, V domains shown)
VH: QVQLQQSGAELVRSGASVRLSCTASGFNIKDYYIHWVKQRPEQGLEWIGWIDPENGDTEYAPRFQDKATMTADTSSNTAYLQLSSLTSEDTAVYYCNGWLLSGNGMDYWGQGTSVTVSS
VL: DIVMTQSHKFMSTSVGDRVSITCKASQDVGTAVAWYQQKPGQSPKLLIYWASTRHTGVPDRFTGSGSGTDFTLTISNVQSEDLADYFCQQYSSYPTFGGGTKLEIK
notes: Chimeric: mouse variable regions on human IgG1 LALA (L234A/L235A); also called 014G04
B2: 18G04 (antibody, human IgG1, V domains shown)
VH: EVQLQQSGPELVKPGASVKISCETSGHTFTEYTMHWVKQSHGKSLEWIGGIYPNNGATKYNQKFKGKATLTVDKSSSTAYMELRSLTSEDSAVYYCARDRYDVWFAYWGQGTLVTVSA
VL: ETTVTQSPASLSMAIGEKVTIRCITSTDIDDDMNWYQQKPGEPPKLLISEGNTLRPGVPSRFSSSGYGTDFVFTIENLLSEDVADYYCLQSDNLPLTFGGGTKLEIK
notes: Chimeric: mouse variable regions on human IgG1 LALA (L234A/L235A); also called 018G04
B3: 5G04 (antibody, human IgG1, V domains shown)
VH: QVQLQQSGAELVMPGASVKMSCKASGYTFTDYWMHWVKQRPGQGLEWIGAIDTSDSYTSYNQKFKGKATLTVDESSSTAYMQLSSLTSEDSAVYYCARDYYGSSTAWFAYWGQGTLVTVSA
VL: B2 VL with E76D, L78M, L96F, G100S
notes: Chimeric: mouse variable regions on human IgG1 LALA (L234A/L235A); also called 05G04; 005G04
B4: 7G04 (antibody, human IgG1, V domains shown)
VH: QVQMKESGAELVRPGASVKLSCKALGYTFTDYEIQWVKQTPVHGLEWIGGIHPGSSGIVYNQKFKGKATLTADKSSSTAYMELSSLTSEDSAVYYCTRGGGYDGAWFAYWGQGSLVTVSA
VL: B2 VL with L78M, L96F, G100S
notes: Chimeric: mouse variable regions on human IgG1 LALA (L234A/L235A); also called 07G04; 007G04
B5: 9G04 (antibody, human IgG1, V domains shown)
VH: QVQLQQSGAELVRPGASVTLSCKASGYTFTDYEMHWVKQTPVHGLEWIGTVDPETGGTAFNQKFKDKASLTADKSSSTVYMELRSLTSEDSAVYYCSRGYGNYGAWFAYWGQGTLVTVSA
VL: B2 VL with M13V, I15T, L78M, L96F, G100S
notes: Chimeric: mouse variable regions on human IgG1 LALA (L234A/L235A); also called 09G04; 009G04
B6: 10G04 (antibody, human IgG1, V domains shown)
VH: DVQLQESGPELVKPGASVKISCKASGYTFTDYNMHWVKQSHGKSLEWIGYIYPYNGGTGYNQKFKSKATLTVDNSSSTAYMELRSLTSEDSAVYYCARDGGYDVYFDYWGQGTTLTVSS
VL: DVVMTQTPLSLPVSLGDQASISCRSSQSLVHSNGNTYLHWYLQKPGQSPKLLIYKVSNRFSGVPDRFSGSGSGTDFTLKISRVEAEDLGVYYCFQGSHVPWTFGGGTKLEIK
notes: Chimeric: mouse variable regions on human IgG1 LALA (L234A/L235A); also called 010G04
B7: 12G04 (antibody, human IgG1, V domains shown)
VH: EVQLVESGGGLVQPGESLKLSCESNEYEFPSHDMSWVRKTPEKRLELVAAINSDGGYTYYPDTMERRFIISRDNTKKTLYLQMSSLRSEDTALYYCARHGYDYDEEGAWFAYWGQGTLVTVSA
VL: B2 VL with S65T, T74S, L78M, L96F, G100S
notes: Chimeric: mouse variable regions on human IgG1 LALA (L234A/L235A); also called 012G04
B8: 21G04 (antibody, human IgG1, V domains shown)
VH: QVQLQQSGAELVKPGASVKLSCKASGYTFTSYWMHWVKQRPGQGLEWIGEIDPSDSHTNYNQKFKGKATLTVDKSSSTAYMQLSSLTSEDSAVYYCAPIYYGLDNWGQGTTLTVSS
VL: ETTVTQSQKFMSTSVGDRVSVTCKASQNVGTNVAWYQQKPGQSPKALIYSASYRYSGVPDRFTGSGSGTDFTLTISNVQSEDLAEYFCQQYNSYPFTFGSGTKLEIK
notes: Chimeric: mouse variable regions on human IgG1 LALA (L234A/L235A)
B9: 22G04 (antibody, human IgG1, V domains shown)
VH: B8 VH with S7P, T58A, Y100H
VL: B8 VL with E1D, T2I, T3V, V4L, F96L, S100A, I106L
notes: as for B8
B10: 23G04 (antibody, human IgG1, V domains shown)
VH: B8 VH with S7P, A9T
VL: B8 VL with E1D, T2I, T3V, V4L, F96Y, S100G
notes: Chimeric: mouse variable regions on human IgG1 LALA (L234A/L235A); also called 023G04
B11: 24G04 (antibody, human IgG1, V domains shown)
VH: B8 VH with T58A
VL: DIVMTQSQKFLSTSVGDRVSVTCKASQNVGTNVAWYQQKPGQSPKVLIYSASYRYSGVPDRFTGSGSGTDFTLTVSNVQSEDLAEYFCQQYNNYPLTFGAGTKLELK
notes: as for B8
B12: 25G04 (antibody, human IgG1, V domains shown)
VH: B8 VH with Q1E, T58A
VL: B8 VL with E1D, T2I, T3V, V4L, S80P, F96L, S100G
notes: as for B8
B13: 28G04 (antibody, human IgG1, V domains shown)
VH: EVQLQQSGPELVKPGASVKISCKTSGYTFTEYTIHWVKQSHGKSLEWIGGIIPNNGGSSHKQNFKDKATLTVDKSSSTAYMELRSLTSEDSAVYYCARAGDYAFDYWGQGTTLTVSS
VL: B2 VL with L78M, D92G, N93T, L96F, G100S
notes: Chimeric: mouse variable regions on human IgG1 LALA (L234A/L235A); also called 028G04
B14: 32G04 (antibody, human IgG1, V domains shown)
VH: EEKLEESGGGLVQPGGSMKLSCVASGFTFSNYWMNWVRQSPEKGLEWVAEIRLKSNNYATHYAESVKGRFTISRDDSKSSVYLQMNNLRAEDTGIYYCTPLLLRWGQGTTLTVSS
VL: ENVLTQSPAIMSASPGEKVTMTCRASSSLSSTYLHWYQQKSGASPKLWIYSTSNLASGVPARFSGSGSGTSYSLTISSVEAEDAATYYCQQYSGYPLTFGSGTKLEIK
notes: Chimeric: mouse variable regions on human IgG1 LALA (L234A/L235A); also called 032G04
B15: 11G06 (antibody, human IgG1, V domains shown)
VH: EVQLQQSGAELVRPGASVTLSCKASGYRFSDYEMQWVKQTPVHGLEWIGGIDPETGGIAYNQKFKVKATLTADKSSSTAFMELRSLTSEDSAVYYCTRKLDFDYWGQGTTLTVSS
VL: B2 VL with M13V, I15T, L78M, G100A, I106L
B16: 17G04 (antibody, human IgG1, V domains shown)
VH: EVQLQQSGPELVKPGASVKISCKTSGYTFTEYTMHWVKQSHGKSLEWIGGIYPYNGGTAYNQKFKNKATLTVDISSNTAYMALRSLASDDSAVYYCASDYFYGDGYPWFTYWGQGTLVTVSA
VL: B2 VL with M13V, I15T, K39R, K45N, L78T, L96F, G100S, K103R
notes: as for B8

Tests used:
[1] = biological target: T1, human CD36 (on HEK 293 or SCC25 cells) (human, UniProt P16671 2-472); assay: cell-based or functional assay
T1 sequence (P16671 2-472 limits assumed): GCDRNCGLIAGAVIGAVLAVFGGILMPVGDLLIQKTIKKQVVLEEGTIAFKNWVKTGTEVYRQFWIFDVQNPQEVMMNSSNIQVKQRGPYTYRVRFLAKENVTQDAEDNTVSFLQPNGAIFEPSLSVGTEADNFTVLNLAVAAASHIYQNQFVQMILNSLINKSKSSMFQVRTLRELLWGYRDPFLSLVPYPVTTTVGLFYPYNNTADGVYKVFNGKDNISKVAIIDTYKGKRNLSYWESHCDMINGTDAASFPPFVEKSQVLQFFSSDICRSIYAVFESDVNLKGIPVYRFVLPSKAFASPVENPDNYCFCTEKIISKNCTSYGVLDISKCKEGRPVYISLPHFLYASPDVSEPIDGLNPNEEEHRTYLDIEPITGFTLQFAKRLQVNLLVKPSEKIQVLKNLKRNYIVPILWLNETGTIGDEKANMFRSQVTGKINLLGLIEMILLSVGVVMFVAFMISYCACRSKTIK

[2] = biological target: T1, human CD36 (on HEK 293 or SCC25 cells); assay: cell-based or functional assay; remark: listed apart in the source
[3] = biological target: T1, human CD36 (on HEK 293 or SCC25 cells); assay: cell-based or functional assay; remark: listed apart in the source
[4] = biological target: T1, human CD36 (on HEK 293 or SCC25 cells); assay: FACS, SCC25 cells stably overexpressing human CD36
[5] = biological target: T1, human CD36 (on HEK 293 or SCC25 cells); assay: FACS, HEK 293 cells transiently overexpressing CD36;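 further: antibody binding to transfected cells detected by flow cytometry with a fluorescent anti-human secondary antibody, EC50 from a four-parameter sigmoidal fit of mean fluorescence intensity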
Method: (§1) After transiently transfecting the HEK 293 cells with a CD36 expression construct, cells were treated with three-fold serial dilution of each candidate antibody (10 dilutions starting at 500 nM). […] After incubation with the cells, an anti-human fluorescently labelled antibody was added to the cell media, allowed to incubate further, and the unbound antibody was washed off of the cells. Subsequently, the cells were subjected to FACS analysis to determine antibody binding to the cells. The results were fitted to a sigmoidal titration curve. Using a nonlinear regression model, the EC₅₀ values for each antibody were calculated from the GeoMFI and MFI values using the log(agonist) versus response (four parameters) fitting on the data transformed according to X=Log[X] in GraphPad PRISM.

[6] = biological target: T2, nonhuman primate CD36 (on HEK 293 cells) (cynomolgus monkey / rhesus macaque, UniProt P16671 2-472 (human entry)); assay: as above
T2 construct: also called non-human primate CD36 (cynomolgus)
T2 sequence (P16671 other isoform, or with tags, fused parts or gaps limits assumed): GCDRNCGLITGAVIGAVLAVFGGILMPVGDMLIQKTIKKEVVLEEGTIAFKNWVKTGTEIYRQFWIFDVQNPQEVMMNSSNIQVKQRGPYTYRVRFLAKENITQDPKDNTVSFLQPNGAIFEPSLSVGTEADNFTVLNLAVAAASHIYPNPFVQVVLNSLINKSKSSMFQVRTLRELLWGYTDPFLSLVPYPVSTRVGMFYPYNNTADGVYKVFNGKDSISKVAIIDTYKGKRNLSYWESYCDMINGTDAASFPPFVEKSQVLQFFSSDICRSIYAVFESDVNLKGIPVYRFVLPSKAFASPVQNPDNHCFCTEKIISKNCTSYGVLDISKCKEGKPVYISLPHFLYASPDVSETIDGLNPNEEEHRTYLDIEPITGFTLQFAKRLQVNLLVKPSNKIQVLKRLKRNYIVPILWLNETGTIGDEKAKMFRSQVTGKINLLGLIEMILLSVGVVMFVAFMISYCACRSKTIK
Method: as §1

[7] = biological target: T3, mouse CD36 (on HEK 293 cells) (mouse, UniProt Q08857 1-472); assay: as above
T3 construct: also called Murine CD36
T3 sequence (Q08857 whole entry): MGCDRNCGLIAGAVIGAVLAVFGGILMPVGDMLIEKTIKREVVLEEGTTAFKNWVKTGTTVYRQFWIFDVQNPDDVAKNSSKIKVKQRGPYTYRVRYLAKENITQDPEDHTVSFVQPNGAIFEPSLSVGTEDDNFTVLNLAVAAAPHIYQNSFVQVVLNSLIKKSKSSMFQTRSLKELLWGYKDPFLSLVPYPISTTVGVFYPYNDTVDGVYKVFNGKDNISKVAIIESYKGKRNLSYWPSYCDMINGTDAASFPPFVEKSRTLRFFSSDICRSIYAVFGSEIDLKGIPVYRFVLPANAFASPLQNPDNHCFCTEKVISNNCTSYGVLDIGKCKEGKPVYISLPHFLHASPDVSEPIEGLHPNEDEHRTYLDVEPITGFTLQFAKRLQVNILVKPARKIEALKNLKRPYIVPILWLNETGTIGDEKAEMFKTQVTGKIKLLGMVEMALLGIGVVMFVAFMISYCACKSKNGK
Method: as §1

[8] = biological target: purified biotin-tagged human CD36 (human, UniProt P16671 30-439, limits assumed, biotin tag, site not stated); assay: AlphaScreen competition; competitor 1G04 on acceptor beads;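 further: streptavidin donor beads excited at 680 nm release singlet oxygen, and the light signal needs a nearby acceptor bead, with 30 min donor-bead incubation at 25 °C in the dark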
Chain of purified biotin-tagged human CD36 (P16671 30-439 limits assumed): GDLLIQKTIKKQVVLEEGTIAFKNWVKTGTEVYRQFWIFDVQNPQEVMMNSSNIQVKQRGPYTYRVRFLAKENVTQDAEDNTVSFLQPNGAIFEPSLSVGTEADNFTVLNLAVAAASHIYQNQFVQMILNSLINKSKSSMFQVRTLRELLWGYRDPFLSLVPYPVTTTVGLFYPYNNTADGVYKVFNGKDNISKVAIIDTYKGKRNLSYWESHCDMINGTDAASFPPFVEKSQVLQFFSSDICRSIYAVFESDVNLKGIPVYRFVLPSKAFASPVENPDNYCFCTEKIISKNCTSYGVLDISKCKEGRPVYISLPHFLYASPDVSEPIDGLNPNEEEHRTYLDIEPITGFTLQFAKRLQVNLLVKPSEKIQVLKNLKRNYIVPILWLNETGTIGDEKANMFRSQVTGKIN

human CD36 (His-tagged) = biological target: T4, human CD36 (His-tagged) (human, UniProt P16671 30-439); assay: SPR (Biacore T200), His-captured CD36, bivalent analyte model
T4 construct: not shown: His tag
T4 sequence (P16671 30-439 limits assumed): as above

[9] = biological target: T1, human CD36 (on HEK 293 or SCC25 cells); assay: FACS, HEK 293 cells transiently overexpressing human CD36
Method: After incubation with the cells, an anti-human fluorescently labelled antibody was added to the cell media, allowed to incubate further, and the unbound antibody was washed off of the cells. Subsequently, the cells were subjected to FACS analysis to determine antibody binding to the cells. The results were fitted to a sigmoidal titration curve. Using a nonlinear regression model, the EC₅₀ values for each antibody were calculated from the GeoMFI and MFI values using the log(agonist) versus response (four parameters) fitting on the data transformed according to X=Log[X] in GraphPad PRISM.
After transiently transfecting the HEK 293 cells with a CD36 expression construct, cells were treated with three-fold serial dilution of each candidate antibody (10 dilutions starting at 500 nM). […] Antibody binding to cells was measured by FACS as above.
Wherever Percent Fatty Acid Uptake Inhibition is given: test concentration or dose not given here.

Binder	Percent Fatty Acid Uptake Inhibition [1] [%]	IC50 of fatty acid uptake inhibition (BODIPY FL C16, HEK hCD36 cells) [2] [nM]	IC50 of oxLDL uptake inhibition (DiI-oxLDL, SCC25 cells) [3] [nM]	EC50 [4] [nM]	EC50 [5] [nM]	EC50 [6] [nM]	EC50 [7] [nM]	EC50 [8] [nM]	Kd (human CD36 (His-tagged)) [nM]	koff (human CD36 (His-tagged)) [s⁻¹]	kon (human CD36 (His-tagged)) [M⁻¹ s⁻¹]	EC50 [9] [nM]
B1	45.1	0.13	0.35	0.41	1.47	0.88	1.57	0.31	2.3	0.0072	3.1e+06	
B2		2.6				6.6	14.7	15.6				
B3		> 1000				2.43	5.03	0.02				
B4	37.4	1	0.27	0.68	0.48	4.16	3.73	0.95	4.9	0.0035	710000	
B5	41.1	170		0.41	0.5	13.9	12	2.06				
B6		33		3.3	0.77	1.48	16					
B7	43.8	3.9		0.39	0.31	0.67	1.2	0.78				
B8					0.36	6.38		0.45				
B9					1.25	1.68		0.53				
B10		1			0.3	1.69		0.28				
B11					0.26	0.81		0.29				
B12					0.74	2.19		0.29				
B13	39.7	0.09	1.67	0.95	0.6	7.77	8.5	4.69	14	0.013	870000	
B14		42		1.88	0.94	6.52	5.14	1.46				
B15												0.76
B16					1.25	4.03	9.31	0.52				
